Results as given in PMC6715741, “Abundant neuroprotective chaperone Lipocalin-type prostaglandin D synthase (L-PGDS) disassembles the Amyloid-β fibrils” (Scientific Reports, 2019).

Molecular target: Amyloid β (1–40) peptide, unlabeled, monomeric (UniProt P05067 672-711)
Assay: cell-based or functional assay

Amyloid β (1–40) peptide, unlabeled, monomeric, sequence (P05067 672-711): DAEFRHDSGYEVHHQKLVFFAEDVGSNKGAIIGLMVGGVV

B1: Human wild-type Lipocalin-type prostaglandin D synthase (L-PGDS) (natural protein, UniProt P41222 23-190, looked up)
chain: APEAQVSVQPNFQQDKFLGRWFSAGLASNSSWLREKKAALSMCKSVVAPATDGGLNLTSTFLRKNQCETRTMLLQPAGSLGSYSYRSPHWGSTYSVSVVETDYDQYALLYSQGSKGPGEDFRMATLYSRTQTPRAELKEKFTAFCKAQGFTEDTIVFLPQTDKCMTEQ
modifications: uniformly 15N labeled in the NMR titration with unlabeled Aβ40; unlabeled elsewhere
- IC50 of WT-L-PGDS for Aβ40 aggregation (ThT end-point fluorescence, 50 µM Aβ40, 37 °C): 980 nM
- fold reduction of the primary nucleation rate constant of Aβ40 aggregation with L-PGDS (ThT curves fitted with Amylofit): 14 fold
- fold reduction of the secondary nucleation rate constant of Aβ40 aggregation with L-PGDS (ThT curves fitted with Amylofit): 6 fold
